# Measured values: article PMC9482650, “Quantitative fragmentomics allow affinity mapping of interactomes” (Nature Communications, 2022)
# T1: ARHGEF11, O15085
# T1 sequence (O15085 42-136, limits assumed, looked up): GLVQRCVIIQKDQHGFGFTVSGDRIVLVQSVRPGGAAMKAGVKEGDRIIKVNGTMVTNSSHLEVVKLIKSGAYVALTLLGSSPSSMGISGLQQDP
# T2: DFNB31_2, Q9P202
# T2 sequence (Q9P202 274-371, limits assumed, looked up): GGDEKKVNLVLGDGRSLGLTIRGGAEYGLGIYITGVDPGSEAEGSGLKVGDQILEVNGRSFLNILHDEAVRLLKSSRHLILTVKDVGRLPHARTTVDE
# T3: GRIP1_2, Q9Y3R0
# T3 sequence (Q9Y3R0 145-248, limits assumed, looked up): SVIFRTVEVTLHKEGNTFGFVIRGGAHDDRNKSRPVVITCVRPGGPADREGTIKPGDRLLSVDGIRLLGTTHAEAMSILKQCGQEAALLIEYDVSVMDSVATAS
# T4: LIN7B, Q9HAP6
# T4 sequence (Q9HAP6 88-185, limits assumed, looked up): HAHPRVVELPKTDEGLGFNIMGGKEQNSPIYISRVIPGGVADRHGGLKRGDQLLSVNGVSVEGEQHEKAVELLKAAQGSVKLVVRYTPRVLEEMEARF
# T5: LNX2_3, Q8N448
# T5 sequence (Q8N448 463-564, limits assumed, looked up): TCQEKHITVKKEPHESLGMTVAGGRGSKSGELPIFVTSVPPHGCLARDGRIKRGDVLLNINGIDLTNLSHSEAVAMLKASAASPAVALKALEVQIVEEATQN
# T6: PDZD2_2, O15018
# T6 sequence (O15018 329-429, limits assumed, looked up): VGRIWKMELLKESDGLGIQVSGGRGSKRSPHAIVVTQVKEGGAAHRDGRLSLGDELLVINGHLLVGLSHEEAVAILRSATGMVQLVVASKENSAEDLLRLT
# T7: PDZRN3_1, Q9UPQ7
# T7 sequence (Q9UPQ7 244-349, limits assumed, looked up): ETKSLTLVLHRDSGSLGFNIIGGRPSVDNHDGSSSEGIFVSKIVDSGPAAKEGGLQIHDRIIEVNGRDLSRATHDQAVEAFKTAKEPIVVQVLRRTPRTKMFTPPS
# T8: PTPN13_1, Q12923
# T8 sequence (Q12923 1088-1188, limits assumed, looked up): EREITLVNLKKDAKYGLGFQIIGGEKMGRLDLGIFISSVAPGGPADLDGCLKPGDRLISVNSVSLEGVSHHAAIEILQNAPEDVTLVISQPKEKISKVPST
# T9: SHANK1, Q9Y566
# T9 sequence (Q9Y566 658-767, limits assumed, looked up): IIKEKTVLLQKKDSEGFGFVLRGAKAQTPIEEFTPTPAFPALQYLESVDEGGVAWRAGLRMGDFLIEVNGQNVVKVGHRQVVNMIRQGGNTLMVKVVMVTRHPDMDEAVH
# T10: SNTB1, Q13884
# T10 sequence (Q13884 107-205, limits assumed, looked up): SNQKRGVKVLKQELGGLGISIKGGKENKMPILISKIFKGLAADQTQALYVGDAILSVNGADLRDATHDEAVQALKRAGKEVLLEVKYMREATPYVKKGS
# T11: TX1BP3, O14907
# T11 sequence (O14907 10-122, limits assumed, looked up): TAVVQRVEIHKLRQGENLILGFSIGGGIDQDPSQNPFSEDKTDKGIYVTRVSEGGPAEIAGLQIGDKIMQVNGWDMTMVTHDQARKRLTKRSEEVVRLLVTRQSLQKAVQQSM
# Key:
# Assay in all cases: holdup assay
# Set-up in all cases: key: below the threshold = too weak to quantify, mostly under pKd 3.1 to 4
# Conditions in all cases: plain residues with an end cap or a label only (N-terminal biotin on a linker: ado-ado)
# AHNAK1, Q09666 = target: AHNAK1, Q09666
# ARHGEF11, O15085 = target: T1, ARHGEF11, O15085
# DFNB31_2, Q9P202 = target: T2, DFNB31_2, Q9P202
# GRASP, Q7Z6J2 = target: GRASP, Q7Z6J2
# GRIP1_2, Q9Y3R0 = target: T3, GRIP1_2, Q9Y3R0
# GRIP2_3, Q9C0E4 = target: GRIP2_3, Q9C0E4
# HTRA1, Q92743 = target: HTRA1, Q92743
# Inadl_10, Q8NI35 = target: Inadl_10, Q8NI35
# Inadl_3, Q8NI35 = target: Inadl_3, Q8NI35
# Inadl_4, Q8NI35 = target: Inadl_4, Q8NI35
# Inadl_5, Q8NI35 = target: Inadl_5, Q8NI35
# Inadl_8, Q8NI35 = target: Inadl_8, Q8NI35
# LAP2, Q96RT1 = target: LAP2, Q96RT1
# LIN7B, Q9HAP6 = target: T4, LIN7B, Q9HAP6
# LNX2_3, Q8N448 = target: T5, LNX2_3, Q8N448
# MAGI3_2, Q5TCQ9 = target: MAGI3_2, Q5TCQ9
# PARD3_3, Q8TEW0 = target: PARD3_3, Q8TEW0
# PDZD2_2, O15018 = target: T6, PDZD2_2, O15018
# PDZRN3_1, Q9UPQ7 = target: T7, PDZRN3_1, Q9UPQ7
# PICK1, Q9NRD5 = target: PICK1, Q9NRD5
# PTPN13_1, Q12923 = target: T8, PTPN13_1, Q12923
# SCRIB_2, Q14160 = target: SCRIB_2, Q14160
# SHANK1, Q9Y566 = target: T9, SHANK1, Q9Y566
# SNTB1, Q13884 = target: T10, SNTB1, Q13884
# TJP2_1, Q9UDY2 = target: TJP2_1, Q9UDY2
# TX1BP3, O14907 = target: T11, TX1BP3, O14907
# Sequence of Inadl_3, Q8NI35 (Q8NI35 359-469): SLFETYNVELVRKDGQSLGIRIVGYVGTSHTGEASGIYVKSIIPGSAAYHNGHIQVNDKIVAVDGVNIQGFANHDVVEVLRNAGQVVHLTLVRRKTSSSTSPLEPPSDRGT
# Sequence of GRIP2_3, Q9C0E4 (Q9C0E4 238-339): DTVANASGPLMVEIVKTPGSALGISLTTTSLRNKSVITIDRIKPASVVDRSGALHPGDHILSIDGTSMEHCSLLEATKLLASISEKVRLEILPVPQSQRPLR
# Sequence of Inadl_8, Q8NI35 (Q8NI35 1425-1530): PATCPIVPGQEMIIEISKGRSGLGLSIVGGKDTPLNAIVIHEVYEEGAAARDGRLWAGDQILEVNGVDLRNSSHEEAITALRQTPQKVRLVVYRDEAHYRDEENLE
# Sequence of AHNAK1, Q09666 (Q09666 4-100): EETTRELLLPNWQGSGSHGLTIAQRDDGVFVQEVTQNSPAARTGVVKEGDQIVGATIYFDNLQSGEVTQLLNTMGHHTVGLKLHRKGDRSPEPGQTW
# Sequence of PARD3_3, Q8TEW0 (Q8TEW0 582-685): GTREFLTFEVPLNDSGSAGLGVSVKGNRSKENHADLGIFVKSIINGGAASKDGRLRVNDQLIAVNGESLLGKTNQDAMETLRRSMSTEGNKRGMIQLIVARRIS
# Sequence of SCRIB_2, Q14160 (Q14160 857-960): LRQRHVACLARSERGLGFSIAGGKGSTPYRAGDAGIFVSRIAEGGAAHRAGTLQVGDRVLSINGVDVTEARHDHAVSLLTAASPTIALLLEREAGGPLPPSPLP
# Sequence of MAGI3_2, Q5TCQ9 (Q5TCQ9 398-503): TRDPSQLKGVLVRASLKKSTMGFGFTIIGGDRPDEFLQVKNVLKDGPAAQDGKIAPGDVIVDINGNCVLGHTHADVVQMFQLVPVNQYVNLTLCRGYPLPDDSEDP
# Sequence of Inadl_4, Q8NI35 (Q8NI35 547-651): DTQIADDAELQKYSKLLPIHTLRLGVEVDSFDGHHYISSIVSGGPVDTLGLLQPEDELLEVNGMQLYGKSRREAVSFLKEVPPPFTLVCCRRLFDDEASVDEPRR
# Sequence of Inadl_5, Q8NI35 (Q8NI35 673-780): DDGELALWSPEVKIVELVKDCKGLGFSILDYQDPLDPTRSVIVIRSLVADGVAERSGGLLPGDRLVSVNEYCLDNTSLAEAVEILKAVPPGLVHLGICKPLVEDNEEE
# Sequence of HTRA1, Q92743 (Q92743 360-477): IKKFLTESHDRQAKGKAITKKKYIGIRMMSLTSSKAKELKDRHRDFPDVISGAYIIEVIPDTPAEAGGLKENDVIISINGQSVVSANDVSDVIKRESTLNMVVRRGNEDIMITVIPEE
# Sequence of GRASP, Q7Z6J2 (Q7Z6J2 96-193): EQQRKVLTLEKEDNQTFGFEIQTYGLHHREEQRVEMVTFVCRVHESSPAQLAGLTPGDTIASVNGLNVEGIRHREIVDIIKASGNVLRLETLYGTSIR
# Sequence of TJP2_1, Q9UDY2 (Q9UDY2 24-128): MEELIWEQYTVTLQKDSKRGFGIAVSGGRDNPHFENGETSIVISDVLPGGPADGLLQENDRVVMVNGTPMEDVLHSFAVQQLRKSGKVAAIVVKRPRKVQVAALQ
# Sequence of PICK1, Q9NRD5 (Q9NRD5 17-115): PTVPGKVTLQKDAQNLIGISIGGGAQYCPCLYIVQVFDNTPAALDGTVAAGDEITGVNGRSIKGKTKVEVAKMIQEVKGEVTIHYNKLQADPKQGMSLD
# Sequence of Inadl_10, Q8NI35 (Q8NI35 1673-1763): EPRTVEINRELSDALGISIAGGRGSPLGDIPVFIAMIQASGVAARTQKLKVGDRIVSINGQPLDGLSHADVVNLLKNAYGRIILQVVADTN
# Sequence of LAP2, Q96RT1 (Q96RT1 other isoform, or with tags, fused parts or gaps): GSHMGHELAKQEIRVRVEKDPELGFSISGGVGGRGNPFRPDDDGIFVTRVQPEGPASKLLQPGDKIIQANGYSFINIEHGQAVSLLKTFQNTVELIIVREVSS
"pKd (AHNAK1, Q09666)","pKd (ARHGEF11, O15085)","pKd (DFNB31_2, Q9P202)","pKd (GRASP, Q7Z6J2)","pKd (GRIP1_2, Q9Y3R0)","pKd (GRIP2_3, Q9C0E4)","pKd (HTRA1, Q92743)","pKd (Inadl_10, Q8NI35)","pKd (Inadl_3, Q8NI35)","pKd (Inadl_4, Q8NI35)","pKd (Inadl_5, Q8NI35)","pKd (Inadl_8, Q8NI35)","pKd (LAP2, Q96RT1)","pKd (LIN7B, Q9HAP6)","pKd (LNX2_3, Q8N448)","pKd (MAGI3_2, Q5TCQ9)","pKd (PARD3_3, Q8TEW0)","pKd (PDZD2_2, O15018)","pKd (PDZRN3_1, Q9UPQ7)","pKd (PICK1, Q9NRD5)",Binder,further results
below the threshold,4,3.57,below the threshold,below the threshold,below the threshold,below the threshold,below the threshold,below the threshold,below the threshold,below the threshold,3.81,4.37,below the threshold,below the threshold,5.03,below the threshold,4.83,5.07,below the threshold,"ARGPPRESEV [FAM110D, Q8TAY7]","pKd (PTPN13_1, Q12923): below the threshold; pKd (SCRIB_2, Q14160): 4.9; pKd (SHANK1, Q9Y566): below the threshold; pKd (SNTB1, Q13884): 5.12; pKd (TJP2_1, Q9UDY2): below the threshold; pKd (TX1BP3, O14907): 5.24"
below the threshold,4.08,below the threshold,4.22,3.61,below the threshold,below the threshold,below the threshold,below the threshold,below the threshold,below the threshold,4.2,below the threshold,below the threshold,below the threshold,5.05,below the threshold,3.81,3.97,4.17,"NTLNRKTTPV [CACNG8, Q8WXS5]","pKd (PTPN13_1, Q12923): below the threshold; pKd (SCRIB_2, Q14160): 3.62; pKd (SHANK1, Q9Y566): below the threshold; pKd (SNTB1, Q13884): 4.07; pKd (TJP2_1, Q9UDY2): 4.05; pKd (TX1BP3, O14907): 5.01"
below the threshold,3.8,below the threshold,below the threshold,below the threshold,below the threshold,4.17,below the threshold,below the threshold,below the threshold,3.68,4.06,below the threshold,below the threshold,below the threshold,below the threshold,3.51,4.49,below the threshold,4.15,"ARSAAASNYV [CLDN4, O14493]","pKd (PTPN13_1, Q12923): below the threshold; pKd (SCRIB_2, Q14160): below the threshold; pKd (SHANK1, Q9Y566): below the threshold; pKd (SNTB1, Q13884): below the threshold; pKd (TJP2_1, Q9UDY2): 3.92; pKd (TX1BP3, O14907): below the threshold"
